Assay in all cases: BLI; biotinylated Avi-tag-ZIgE-SpyCatcher loaded on streptavidin Octet tips (2.5 ug/ml, 60 s); IgE as analyte in PBST with 30 mg/ml skimmed milk; 300 s association, 400 s dissociation; 1:1 binding model assuming only partial dissociation; mean of three IgE concentrations
The target in experiment [1] is Avi-tag-ZIgE^33-SpyCatcher.
For experiment [2], the target named is Avi-tag-ZIgE^44-SpyCatcher.
Experiment [3] deals with Avi-tag-ZIgE^consensus-SpyCatcher.
The target of experiment [4] is Avi-tag-ZIgE^wild-type-SpyCatcher.

“IgE (native human monoclonal, Abcam ab65866) (antibody)”: the equilibrium dissociation constant (Kd) in experiment [1] amounted to 2.1 µM; in experiment [2], 4.8 µM; in experiment [3], 0.61 µM; in experiment [4], 7.3 µM.

In general, Kd refers to a measure of binding affinity in units of concentration. Read a high Kd as weaker binding.

For the origin of these results see PMC7293038.
